According to article PMC10397247:

Tests used:
Test in all cases: two-hybrid library CCmax;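 further: natural log of median RNA to DNA barcode read ratio; higher means stronger binding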
4H2649-AA = target: T1, 4H2649-AA; conditions: mean of both orientations
T1 chain: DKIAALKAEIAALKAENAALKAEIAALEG

4H3381-AA = target: T2, 4H3381-AA; conditions: mean of both orientations
T2 chain: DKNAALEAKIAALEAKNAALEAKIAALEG

4H2865-AA = target: T3, 4H2865-AA; conditions: mean of both orientations
T3 chain: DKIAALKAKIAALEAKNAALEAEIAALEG

4H3865-AA = target: T4, 4H3865-AA; conditions: mean of both orientations
T4 chain: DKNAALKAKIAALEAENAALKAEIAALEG

4H629-AA = target: T5, 4H629-AA; conditions: mean of both orientations
T5 chain: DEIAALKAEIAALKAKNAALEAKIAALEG

4H850-AA = target: T6, 4H850-AA; conditions: mean of both orientations
T6 chain: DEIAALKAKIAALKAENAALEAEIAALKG

4H485-AA = target: T7, 4H485-AA; conditions: mean of both orientations
T7 chain: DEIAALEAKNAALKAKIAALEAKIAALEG

4H710-AA = target: T8, 4H710-AA; conditions: mean of both orientations
T8 chain: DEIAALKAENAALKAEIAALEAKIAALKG

4H3009-AA = target: T9, 4H3009-AA; conditions: mean of both orientations
T9 chain: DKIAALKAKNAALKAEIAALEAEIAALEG

4H458-AA = target: T10, 4H458-AA; conditions: mean of both orientations
T10 chain: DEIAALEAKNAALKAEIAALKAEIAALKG

4H570-AA = target: T11, 4H570-AA; conditions: mean of both orientations
T11 chain: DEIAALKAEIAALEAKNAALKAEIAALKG

4H94-AA = target: T12, 4H94-AA; conditions: mean of both orientations
T12 chain: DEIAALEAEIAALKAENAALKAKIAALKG

4H3590-AA = target: T13, 4H3590-AA; conditions: mean of both orientations
T13 chain: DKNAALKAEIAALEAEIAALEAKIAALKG

4H536-AA = target: T14, 4H536-AA; conditions: mean of both orientations
T14 chain: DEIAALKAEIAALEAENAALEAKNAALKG

4H2725-AA = target: T15, 4H2725-AA; conditions: mean of both orientations
T15 chain: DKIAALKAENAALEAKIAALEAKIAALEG

4H3395-AA = target: T16, 4H3395-AA; conditions: mean of both orientations
T16 chain: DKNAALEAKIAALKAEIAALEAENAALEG

4H930-AA = target: T17, 4H930-AA; conditions: mean of both orientations
T17 chain: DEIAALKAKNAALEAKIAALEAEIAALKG

4H3410-AA = target: T18, 4H3410-AA; conditions: mean of both orientations
T18 chain: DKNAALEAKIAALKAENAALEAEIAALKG

4H909-AA = target: T19, 4H909-AA; conditions: mean of both orientations
T19 chain: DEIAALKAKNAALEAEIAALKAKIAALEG

4H310-AA = target: T20, 4H310-AA; conditions: mean of both orientations
T20 chain: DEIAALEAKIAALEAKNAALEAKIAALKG

4H3165-AA = target: T21, 4H3165-AA; conditions: mean of both orientations
T21 chain: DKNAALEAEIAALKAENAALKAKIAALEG

4H3016-AA = target: T22, 4H3016-AA; conditions: mean of both orientations
T22 chain: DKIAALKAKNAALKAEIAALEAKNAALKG

4H797-AA = target: T23, 4H797-AA; conditions: mean of both orientations
T23 chain: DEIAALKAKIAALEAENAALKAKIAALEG

4H745-AA = target: T24, 4H745-AA; conditions: mean of both orientations
T24 chain: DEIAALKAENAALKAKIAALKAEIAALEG

4H3697-AA = target: T25, 4H3697-AA; conditions: mean of both orientations
T25 chain: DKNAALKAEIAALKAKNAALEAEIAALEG

4H891-AA = target: T26, 4H891-AA; conditions: mean of both orientations
T26 chain: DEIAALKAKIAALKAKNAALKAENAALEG

4H2473-AA = target: T27, 4H2473-AA
T27 chain: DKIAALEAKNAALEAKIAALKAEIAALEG

4H3120-AA = target: T28, 4H3120-AA; conditions: mean of both orientations
T28 chain: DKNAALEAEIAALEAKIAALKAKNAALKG

4H3753-AA = target: T29, 4H3753-AA; conditions: mean of both orientations
T29 chain: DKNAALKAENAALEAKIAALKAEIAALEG

4H3130-AA = target: T30, 4H3130-AA; conditions: mean of both orientations
T30 chain: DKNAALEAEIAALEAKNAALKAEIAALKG

4H2698-AA = target: T31, 4H2698-AA; conditions: mean of both orientations
T31 chain: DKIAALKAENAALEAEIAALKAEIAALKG

4H3427-AA = target: T32, 4H3427-AA; conditions: mean of both orientations
T32 chain: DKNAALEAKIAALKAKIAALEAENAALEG

4H794-AA = target: T33, 4H794-AA; conditions: mean of both orientations
T33 chain: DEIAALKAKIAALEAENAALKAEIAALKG

4H2617-AA = target: T34, 4H2617-AA; conditions: mean of both orientations
T34 chain: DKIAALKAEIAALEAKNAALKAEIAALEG

4H2837-AA = target: T35, 4H2837-AA; conditions: mean of both orientations
T35 chain: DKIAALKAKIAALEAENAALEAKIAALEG

4H3844-AA = target: T36, 4H3844-AA; conditions: mean of both orientations
T36 chain: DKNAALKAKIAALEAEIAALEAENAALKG

4H881-AA = target: T37, 4H881-AA
T37 chain: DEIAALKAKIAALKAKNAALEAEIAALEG

4H2944-AA = target: T38, 4H2944-AA; conditions: mean of both orientations
T38 chain: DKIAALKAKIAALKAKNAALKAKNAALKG

4H993-AA = target: T39, 4H993-AA; conditions: mean of both orientations
T39 chain: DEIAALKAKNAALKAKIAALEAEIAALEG

4H317-AA = target: T40, 4H317-AA; conditions: mean of both orientations
T40 chain: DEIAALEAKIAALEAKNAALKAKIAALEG

4H2642-AA = target: T41, 4H2642-AA; conditions: mean of both orientations
T41 chain: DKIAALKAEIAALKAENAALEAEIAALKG

4H429-AA = target: T42, 4H429-AA; conditions: mean of both orientations
T42 chain: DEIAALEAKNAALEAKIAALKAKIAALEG

4H566-AA = target: T43, 4H566-AA; conditions: mean of both orientations
T43 chain: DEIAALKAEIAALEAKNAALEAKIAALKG

4H2754-AA = target: T44, 4H2754-AA; conditions: mean of both orientations
T44 chain: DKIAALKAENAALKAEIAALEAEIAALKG

4H717-AA = target: T45, 4H717-AA; conditions: mean of both orientations
T45 chain: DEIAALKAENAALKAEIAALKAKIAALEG

4H2729-AA = target: T46, 4H2729-AA; conditions: mean of both orientations
T46 chain: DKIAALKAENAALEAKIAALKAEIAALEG

4H3112-AA = target: T47, 4H3112-AA; conditions: mean of both orientations
T47 chain: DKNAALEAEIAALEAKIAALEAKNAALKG

4H780-AA = target: T48, 4H780-AA; conditions: mean of both orientations
T48 chain: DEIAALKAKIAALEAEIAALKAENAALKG

4H342-AA = target: T49, 4H342-AA; conditions: mean of both orientations
T49 chain: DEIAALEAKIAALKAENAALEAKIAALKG

4H3655-AA = target: T50, 4H3655-AA; conditions: mean of both orientations
T50 chain: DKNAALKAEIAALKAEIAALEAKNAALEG

4H3627-AA = target: T51, 4H3627-AA; conditions: mean of both orientations
T51 chain: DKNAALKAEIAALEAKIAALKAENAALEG

4H454-AA = target: T52, 4H454-AA; conditions: mean of both orientations
T52 chain: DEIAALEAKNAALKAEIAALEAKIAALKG

4H3921-AA = target: T53, 4H3921-AA; conditions: mean of both orientations
T53 chain: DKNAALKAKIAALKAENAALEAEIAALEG

4H335-AA = target: T54, 4H335-AA; conditions: mean of both orientations
T54 chain: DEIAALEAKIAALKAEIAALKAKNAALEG

4H678-AA = target: T55, 4H678-AA; conditions: mean of both orientations
T55 chain: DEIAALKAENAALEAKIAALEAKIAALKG

4H906-AA = target: T56, 4H906-AA; conditions: mean of both orientations
T56 chain: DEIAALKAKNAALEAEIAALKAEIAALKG

4H2575-AA = target: T57, 4H2575-AA
T57 chain: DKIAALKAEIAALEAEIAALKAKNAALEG

4H3343-AA = target: T58, 4H3343-AA; conditions: mean of both orientations
T58 chain: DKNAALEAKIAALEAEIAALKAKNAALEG

4H605-AA = target: T59, 4H605-AA; conditions: mean of both orientations
T59 chain: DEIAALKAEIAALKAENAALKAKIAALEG

4H2949-AA = target: T60, 4H2949-AA; conditions: mean of both orientations
T60 chain: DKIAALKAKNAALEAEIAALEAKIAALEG

DKIAALEAKNAALEAKIAALKAEIAALEG [4H2473-AA]
interaction score (4H2649-AA): -0.843
interaction score (4H3381-AA): -1.15
interaction score (4H2865-AA): -0.67
interaction score (4H3865-AA): -0.611
interaction score (4H629-AA): -1.34
interaction score (4H850-AA): -0.625
interaction score (4H485-AA): 0.85
interaction score (4H710-AA): 0.747
interaction score (4H3009-AA): 2.07
interaction score (4H458-AA): 1.39
interaction score (4H570-AA): 1.26
interaction score (4H94-AA): -0.873
interaction score (4H3590-AA): 1.18
interaction score (4H536-AA): -1.67
interaction score (4H2725-AA): 0.607
interaction score (4H3395-AA): -1.43
interaction score (4H930-AA): -0.124
interaction score (4H3410-AA): -0.429
interaction score (4H909-AA): 0.0276
interaction score (4H310-AA): -0.305
interaction score (4H3165-AA): -1.43
interaction score (4H3016-AA): 1.52
interaction score (4H797-AA): -1.58
interaction score (4H745-AA): -1.45
interaction score (4H3697-AA): -1.54
interaction score (4H891-AA): -1.65
interaction score (4H2473-AA): 1.2
interaction score (4H3120-AA): -0.0619
interaction score (4H3753-AA): -0.919
interaction score (4H3130-AA): -0.173
interaction score (4H2698-AA): 1.68

DKIAALKAEIAALEAEIAALKAKNAALEG [4H2575-AA]
interaction score (4H3427-AA): 0.849
interaction score (4H794-AA): -1.27
interaction score (4H2617-AA): 0.75
interaction score (4H2837-AA): -1.05
interaction score (4H3844-AA): -0.532
interaction score (4H881-AA): -0.902
interaction score (4H2944-AA): -0.604
interaction score (4H993-AA): -0.15
interaction score (4H317-AA): 0.149
interaction score (4H2642-AA): -1.2
interaction score (4H429-AA): -0.196
interaction score (4H566-AA): -1.21
interaction score (4H2754-AA): -1.28
interaction score (4H717-AA): -1.25
interaction score (4H2729-AA): 0.467
interaction score (4H3112-AA): -0.383
interaction score (4H780-AA): 0.14
interaction score (4H342-AA): 1.14
interaction score (4H3655-AA): -0.814
interaction score (4H3627-AA): 0.318
interaction score (4H454-AA): 1.03
interaction score (4H3921-AA): -1.45
interaction score (4H335-AA): 1.88
interaction score (4H678-AA): -0.968
interaction score (4H906-AA): -1.56
interaction score (4H2575-AA): 1.9
interaction score (4H3343-AA): -0.0872
interaction score (4H605-AA): -1.27
interaction score (4H2949-AA): -0.954
